Measured values published in article PMC12038006, “Structure and mechanism of a mycobacterial isoniazid efflux pump MsRv1273c/72c with a degenerate nucleotide-binding site” (Nature Communications, 2025).

How the values were obtained:
[1] = target: MsRv1272c (MSMEG_5009) from Mycobacterium smegmatis (Mycobacterium smegmatis (Msm) mc2 155) (UniProt A0R272)
[2] = target: MsRv1272c (MSMEG_5009) from Mycobacterium smegmatis (Mycobacterium smegmatis (Msm) mc2 155) (UniProt A0R272); assay: SEC

Question: With “MsRv1273c (MSMEG_5008) from Mycobacterium smegmatis (from UniProt A0R271 1-578) (natural protein)” as the substance, how does the basal ATPase activity of the MsRv1273c/72c complex in peptidiscs (malachite green) (nM Pi min^–1 mg^–1) [1] read?
Answer: 148

Question: What about the basal ATPase activity of the MsRv1273c/72c complex in proteoliposomes (malachite green) (nM Pi min^–1 mg^–1) [1] of the same substance?
Answer: 181

Question: And the stoichiometry N [2]?
Answer: 1
